Reference: US11493476B2, “Charge detector and process for sensing a charged analyte” (Government of the United States of America, as represented …, priority 2016, dated 2022)

Assays:
Type in all cases: biochemical
Cdk5/p25 [1] = biological target: T1, Cdk5/p25 (Homo sapiens, UniProt Q00535); assay: Radioactively labeled γ-32P-ATP enzyme activity assay; conditions: radioactively labeled γ-32P-ATP assay
Cdk5/p25 [2] = biological target: T1, Cdk5/p25; assay: FET time-series measurement of enzyme catalyzed phosphorylation (reaction kinetics); conditions: Cdk5/p25 3.8 μM; [H1] 9.1, 12.7, 18.2 μM; independent of the histone H1 concentration
Source text: With reference to FIG. 53, FIG. 54, FIG. 55, and FIG. 56, ionic liquid-gate field-effect transistors (FET) were used for label-free enzyme activity and kinetics measurements. The proline directed kinase Cdk5 catalyzes the phosphorylation of substrate proteins (e.g., histone H1) in the presence of an activator (e.g., p25) and adenosine triphosphate (ATP). The hydrolysis of ATP results in the transfer of a single phosphate group to either a serine (Ser) or threonine (Thr) residue in the substrate protein and the release of a proton into solution, resulting in a change in solution pH. Moreover, ionic liquid-gate FETs measured change in solution pH as a function of the histone H1 concentration ([H1]) inferentially provide activity of Cdk5 under steady-state conditions. FET measurements were in quantitative agreement with a complementary assay that used radioactively labeled 32P-ATP as a reporter of Cdk5 activity. Time-series measurements of enzyme catalyzed phosphorylation as a function of [H1] […] The solid lines depict the reaction kinetics model that describes the time course of phosphorylation, while the dashed lines represent an estimate of the reaction velocity during the first 100 s after a change in the signal was detected.
The concentration of the Cdk5/p25 complex in these measurements was 3.8 μM (5-fold lower than the quantity used in FIG. 54 and FIG. 55). […]

Cdk5/p25 [3] = biological target: T1, Cdk5/p25; assay: Ionic liquid-gated FET measurement of solution pH change during Cdk5/p25-catalysed phosphorylation of histone H1, steady state; conditions: FET measurements, non-linear regression, measured differentially against control without ATP
Source text: With regard to enzyme activity and kinetics, the ultrasensitive FET devices measured activity and kinetics of proline directed kinase Cdk5. Under normal physiological conditions, Cdk5 is tightly regulated by either the p35 or p39 […] proteins. Oxidative stress causes a 10 kDa membrane anchored fragment of p35 to be cleaved, forming the pathological activator p25, resulting in deregulation and delocalization of the complex to the cytosol. […]
Cdk5 mediated phosphorylation results in the release of a proton during ATP hydrolysis and the transfer of a single phosphate group to either a serine or threonine residue immediately preceding a proline. Here, ionic liquid-gated FETs detected small changes in the solution pH during phosphorylation of the substrate protein, histone H1.
In each case, Vt,BG was estimated from an ID-VBG plot. To account for instrument drift, each data point in the figure was measured differentially with a control sample that was identical to the measured vials except for the absence of ATP, thereby inhibiting the phosphorylation reaction. […]
[formula] where k is a constant, [H1] is the concentration of histone H1 and γ is a scaling constant. For the FET measurements in FIG. 54, we estimated k=17.5±1.3 μM from a non-linear regression of the model to the measured data, consistent with previously published activity measurements for the pathological Cdk5/p25 complex. […]

T1 sequence (Q00535 whole entry, species assumed): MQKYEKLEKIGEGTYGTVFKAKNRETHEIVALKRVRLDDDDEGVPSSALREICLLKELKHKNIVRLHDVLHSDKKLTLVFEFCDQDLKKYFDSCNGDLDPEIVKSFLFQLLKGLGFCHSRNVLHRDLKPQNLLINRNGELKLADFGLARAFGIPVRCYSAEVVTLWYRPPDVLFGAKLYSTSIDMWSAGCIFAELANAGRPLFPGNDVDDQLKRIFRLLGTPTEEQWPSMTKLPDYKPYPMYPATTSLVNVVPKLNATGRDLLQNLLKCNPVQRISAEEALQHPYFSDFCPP
T1 sequence (Q15078 99-307 partner limits assumed, species assumed): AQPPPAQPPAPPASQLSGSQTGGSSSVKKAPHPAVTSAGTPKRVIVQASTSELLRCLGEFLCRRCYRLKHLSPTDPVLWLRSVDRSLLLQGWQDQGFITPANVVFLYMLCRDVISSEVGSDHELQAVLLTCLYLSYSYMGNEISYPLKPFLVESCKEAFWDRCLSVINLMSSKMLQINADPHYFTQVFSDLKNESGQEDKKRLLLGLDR

- rate constant k1 (first order rate law) (Cdk5/p25 [2]): 0.18±0.02 per min
Substance: histone H1
- k (constant of kinase activity model versus histone H1 concentration) (Cdk5/p25 [1]): 12.1 ± 2.3 µM
- k (constant of kinase activity model versus histone H1 concentration) (Cdk5/p25 [3]): 17.5 ± 1.3 µM
